Assay results: US5965697, “Disaggregated mutant human RANTES” (British Biotech Pharmaceuticals Limited, dated 1999)
Positions count from the first letter of the chain named. Where “and” joins values, the source holds several entries; their conditions need not be identical. Identical values can stand only once.

B1: wild-type human RANTES (hRANTES) (ligand)
chain: SPYSSDTTPCCFAYIARPLPRAHIKEYFYTSGKCSNPAVVFVTRKNRQVCANPEKKWVREYINSLEMS
B2: hRANTES E66>S (ligand)
chain: B1 chain with E66S
B3: hRANTES E26>A E66>S (ligand)
chain: B1 chain with E26A, E66S
B4: hRANTES E26>A (ligand)
chain: B1 chain with E26A

Key:
[1] = biological target: wild-type human RANTES (hRANTES) (human); experiment: sedimentation equilibrium AUC in PBS, 0.1 mg/ml; self-association (monomer 7850 Da)
[2] = biological target: cell-surface proteoglycans; experiment: radioligand binding, 0.125 nM 125I-hRANTES on CHO cells, filter harvest
[3] = biological target: T-cell receptor complex (tyrosine kinase pathway) on CD3+ Jurkat cells and cultured human T lymphocytes (human); conditions: scale: % of cells expressing the cell surface marker
[4] = biological target: the molecule itself; experiment: sedimentation equilibrium AUC in PBS, 0.5 mg/ml; self-association
Procedure: Mutagenesis of pERM1 was performed according to the method of Kunkel et al., (Methods in Enzymology, 154: 367–382; 1987). The oligonucleotides BB-35875 (SEQ ID NO. 14; 5'-[…] […] GTGG-3') and BB-37015 (SEQ ID No. 15; 5'-[…] ACATTGA-CAA […]-3') were used to construct the hRANTES Glu26>Ala and Glu66>Ser variant genes respectively. A combination of both BB-35875 and BB-37015 was used to […]. The samples were spun at 15,000 r.p.m., 25° C. for 18 hours to reach equilibrium. Final solute distributions were recorded at 235 nm, 280 nm and 295 nm as a function of radius. The scan was repeated after a further three hours of centrifugation to confirm that equilibrium had been achieved. The final solute distribution ASCII data were captured and the Microcal Origin software for the Beckman XLA analytical ultracentrifuge was used to fit the data to a model assuming a single ideal species (Ideal1) to provide an estimate of the weight average molecular weight.

[5] = biological target: T-cell receptor complex (tyrosine kinase pathway) on CD3+ Jurkat cells and cultured human T lymphocytes (human)
[6] = biological target: cell-surface proteoglycans; experiment: radioligand binding, 0.2 nM 125I-hRANTES E66>S on CHO cells, filter harvest
[7] = biological target: G-protein coupled receptors (GPCRs) through which hRANTES acts

Molecule	% of cells expressing the cell surface marker (CD69, CD11b, CD11c) on cultured human T lymphocytes, 5 µM [3]	Average molecular weight by AUC (Da) [4] [Da]	further results
wild-type human RANTES (hRANTES) (ligand)			Average molecular weight by AUC (Da) [1]: > 160000 Da
B1	99.1		total counts bound [2]: 5730 cpm
B2	0.39	14000	calcium mobilisation in CD3+ Jurkat cells [5]: 200 fold; total counts bound [6]: 18300 cpm
B3		15000	
B4		33000	IC50 of p24 antigen production by PBMC infected with HIV-1 RR [7]: 28 nM and 0.22 µg/ml
